Seven molecules from US20260085129A1 (ECO ANIMAL HEALTH, published 2026) can be followed below.

To fix the notation:
T1: porcine CD163, membrane-bound form on porcine pulmonary alveolar macrophage (pPAM) WT cells (porcine, UniProt Q2VL90 47-1115)
T1 construct: Native CD163 on primary cells; also called membrane CD163; cell-surface CD163
T1 sequence: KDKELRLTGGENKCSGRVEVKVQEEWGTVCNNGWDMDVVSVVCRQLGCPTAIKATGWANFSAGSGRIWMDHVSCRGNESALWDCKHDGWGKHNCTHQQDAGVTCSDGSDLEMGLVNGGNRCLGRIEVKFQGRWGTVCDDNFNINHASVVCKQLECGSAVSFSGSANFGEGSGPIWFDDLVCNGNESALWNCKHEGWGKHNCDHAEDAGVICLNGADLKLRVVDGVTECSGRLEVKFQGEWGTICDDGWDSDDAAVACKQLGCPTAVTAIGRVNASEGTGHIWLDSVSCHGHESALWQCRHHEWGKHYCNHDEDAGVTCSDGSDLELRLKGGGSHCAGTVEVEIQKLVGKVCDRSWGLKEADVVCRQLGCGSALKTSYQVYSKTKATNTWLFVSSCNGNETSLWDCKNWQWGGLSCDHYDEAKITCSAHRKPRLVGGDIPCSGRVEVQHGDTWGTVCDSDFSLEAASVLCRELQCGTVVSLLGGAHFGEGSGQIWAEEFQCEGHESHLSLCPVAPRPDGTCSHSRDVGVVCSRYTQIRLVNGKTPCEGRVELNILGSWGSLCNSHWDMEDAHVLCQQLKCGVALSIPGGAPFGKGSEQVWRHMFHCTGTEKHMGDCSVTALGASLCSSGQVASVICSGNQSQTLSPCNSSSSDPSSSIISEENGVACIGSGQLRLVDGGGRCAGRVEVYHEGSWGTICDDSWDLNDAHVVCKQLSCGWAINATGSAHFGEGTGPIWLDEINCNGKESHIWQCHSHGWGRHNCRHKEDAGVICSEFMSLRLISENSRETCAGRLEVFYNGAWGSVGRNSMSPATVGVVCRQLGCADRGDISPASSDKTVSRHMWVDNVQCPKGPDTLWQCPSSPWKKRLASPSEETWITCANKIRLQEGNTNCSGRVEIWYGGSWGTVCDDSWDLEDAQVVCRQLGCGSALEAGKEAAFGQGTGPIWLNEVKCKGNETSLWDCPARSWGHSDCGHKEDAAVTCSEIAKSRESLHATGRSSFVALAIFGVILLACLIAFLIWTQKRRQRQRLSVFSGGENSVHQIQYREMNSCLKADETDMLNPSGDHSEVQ

B1: 03E11 + 17B11 2(G4S) biparatopic VHH construct (bispecific antibody)
chain: QVQLQESGGGLVQVGSSLRLSCVTSGRTPSRYVMGWFRQAPGQEREFVAAISWSGRAPYADSVKGRFTISRDNAKNTVYLQMNSLKPEDTGVYYCAGGEGAIKWTTLDAYDYWGQGTQVTVSSGGGGSGGGGSQVQLVESGGGLVQAGGSLRLSCAASGRTFSSYAMGWFRQTPGKDREFVARIGWTGGTTIYADSVKGRFTISRDNAKNTVYLQMNSLKPEDTAVYYCAADQAGWRTAGVRNTYEYDYWGQGTQVTVSS
notes: Biparatopic; not shown: FLAG and His tags
B2: 03E11 + 17B11 + 03D03 2(G4S) triparatopic VHH construct (bispecific antibody)
chain: QVQLQESGGGLVQVGSSLRLSCVTSGRTPSRYVMGWFRQAPGQEREFVAAISWSGRAPYADSVKGRFTISRDNAKNTVYLQMNSLKPEDTGVYYCAGGEGAIKWTTLDAYDYWGQGTQVTVSSGGGGSGGGGSQVQLVESGGGLVQAGGSLRLSCAASGRTFSSYAMGWFRQTPGKDREFVARIGWTGGTTIYADSVKGRFTISRDNAKNTVYLQMNSLKPEDTAVYYCAADQAGWRTAGVRNTYEYDYWGQGTQVTVSSGGGGSGGGGSQLQLVESGGGLVQPGGSLRLSCAASGFTLDDYTIGWFRQAPGKEREGVSCINSITSNTYYADSVKGRFTISRDNAKNTVYLQMNSLTAEDTAIYYCAADSGLFSGSSCLKYRAMRFGSWGQGTQVTVSS
notes: Triparatopic; not shown: FLAG and His tags
B3: 17B11 + 03D03 5(G4S) biparatopic VHH construct (bispecific antibody)
chain: QVQLVESGGGLVQAGGSLRLSCAASGRTFSSYAMGWFRQTPGKDREFVARIGWTGGTTIYADSVKGRFTISRDNAKNTVYLQMNSLKPEDTAVYYCAADQAGWRTAGVRNTYEYDYWGQGTQVTVSSGGGGSGGGGSGGGGSGGGGSGGGGSQLQLVESGGGLVQPGGSLRLSCAASGFTLDDYTIGWFRQAPGKEREGVSCINSITSNTYYADSVKGRFTISRDNAKNTVYLQMNSLTAEDTAIYYCAADSGLFSGSSCLKYRAMRFGSWGQGTQVTVSS
notes: as for B1
B4: 17B11 + 03D03 2(G4S) biparatopic VHH construct (bispecific antibody)
chain: QVQLVESGGGLVQAGGSLRLSCAASGRTFSSYAMGWFRQTPGKDREFVARIGWTGGTTIYADSVKGRFTISRDNAKNTVYLQMNSLKPEDTAVYYCAADQAGWRTAGVRNTYEYDYWGQGTQVTVSSGGGGSGGGGSQLQLVESGGGLVQPGGSLRLSCAASGFTLDDYTIGWFRQAPGKEREGVSCINSITSNTYYADSVKGRFTISRDNAKNTVYLQMNSLTAEDTAIYYCAADSGLFSGSSCLKYRAMRFGSWGQGTQVTVSS
notes: as for B1
B5: 03E11 + 03D03 5(G4S) biparatopic VHH construct (bispecific antibody)
chain: QVQLQESGGGLVQVGSSLRLSCVTSGRTPSRYVMGWFRQAPGQEREFVAAISWSGRAPYADSVKGRFTISRDNAKNTVYLQMNSLKPEDTGVYYCAGGEGAIKWTTLDAYDYWGQGTQVTVSSGGGGSGGGGSGGGGSGGGGSGGGGSQLQLVESGGGLVQPGGSLRLSCAASGFTLDDYTIGWFRQAPGKEREGVSCINSITSNTYYADSVKGRFTISRDNAKNTVYLQMNSLTAEDTAIYYCAADSGLFSGSSCLKYRAMRFGSWGQGTQVTVSS
notes: as for B1
B6: 03E11 + 17B11 5(G4S) biparatopic VHH construct (bispecific antibody)
chain: QVQLQESGGGLVQVGSSLRLSCVTSGRTPSRYVMGWFRQAPGQEREFVAAISWSGRAPYADSVKGRFTISRDNAKNTVYLQMNSLKPEDTGVYYCAGGEGAIKWTTLDAYDYWGQGTQVTVSSGGGGSGGGGSGGGGSGGGGSGGGGSQVQLVESGGGLVQAGGSLRLSCAASGRTFSSYAMGWFRQTPGKDREFVARIGWTGGTTIYADSVKGRFTISRDNAKNTVYLQMNSLKPEDTAVYYCAADQAGWRTAGVRNTYEYDYWGQGTQVTVSS
notes: as for B1
B7: 03E11 + 03D03 2(G4S) biparatopic VHH construct (bispecific antibody)
chain: QVQLQESGGGLVQVGSSLRLSCVTSGRTPSRYVMGWFRQAPGQEREFVAAISWSGRAPYADSVKGRFTISRDNAKNTVYLQMNSLKPEDTGVYYCAGGEGAIKWTTLDAYDYWGQGTQVTVSSGGGGSGGGGSQLQLVESGGGLVQPGGSLRLSCAASGFTLDDYTIGWFRQAPGKEREGVSCINSITSNTYYADSVKGRFTISRDNAKNTVYLQMNSLTAEDTAIYYCAADSGLFSGSSCLKYRAMRFGSWGQGTQVTVSS
notes: Biparatopic: two anti-porcine CD163 VHHs in one chain; also called 19-17; 03D03+03E11; not shown: FLAG and His tags

In the experiment the target is T1, porcine CD163, membrane-bound form on …. As to the kind of experiment: dose-response FACS on pPAM WT cells, anti-FLAG-biotin and streptavidin R-PE detection. The procedure: Biparatopic and triparatopic antibody constructs in PBS (pH7.4) were diluted in a 3-fold serial dilutions from 150 nM down to 0.023 nM in FACS buffer (0.5% FBS, 0.5 mM EDTA in 1×PBS pH7.4). Biparatopic and triparatopic candidates were incubated with anti-FLAG-Biotin (Sigma, Cat. nr. F9291), for 30 min on ice with shaking. This mixture was added to pPAM WT cells and incubated for 60 min on ice with gentle shaking. Cells were washed 3×with 150 μl/well of FACS buffer and incubated with 50 μl/well of the secondary detection reagent Streptavidin R-P.E. conjugate antibody (Invitrogen, Cat. nr. SA10044) for 30 min on ice with shaking and protected from light. Cells were then washed 3× with 150 μl/well of FACS Buffer and resuspended in 50 μl/well of FACS buffer to be measured on a FACS machine (Attune™ N×T), and a total of 10000 cells were acquired per sample.
As usually defined, the EC50 is the concentration that produces a half-maximal response. A higher EC50 goes with lower potency in that assay. Molecule B1 had an EC50 of 6.8 nM.
To B2 belongs 18.2 nM; to B3, 6.6 nM; to B4, 6.6 nM.
Regarding B5, the EC50 came out at 6.5 nM.
With B6 the figure was 8.4 nM; with B7, 8.4 nM.
